Seven molecules from patent publication US20220332811A1 (NOVAROCK BIOTHERAPEUTICS, published 2022) can be followed below.

Assay [1] concerns the target T1, recombinant human IL-23 (p19/p40 heterodimer) (human, UniProt Q9NPF7 20-189; P29460 23-328).
T1 sequence (looked up) 1: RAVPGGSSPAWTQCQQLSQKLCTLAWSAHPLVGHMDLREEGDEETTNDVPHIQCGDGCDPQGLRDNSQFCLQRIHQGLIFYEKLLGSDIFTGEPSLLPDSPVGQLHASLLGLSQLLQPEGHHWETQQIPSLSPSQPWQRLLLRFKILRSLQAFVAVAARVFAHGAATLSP
T1 sequence (looked up) 2: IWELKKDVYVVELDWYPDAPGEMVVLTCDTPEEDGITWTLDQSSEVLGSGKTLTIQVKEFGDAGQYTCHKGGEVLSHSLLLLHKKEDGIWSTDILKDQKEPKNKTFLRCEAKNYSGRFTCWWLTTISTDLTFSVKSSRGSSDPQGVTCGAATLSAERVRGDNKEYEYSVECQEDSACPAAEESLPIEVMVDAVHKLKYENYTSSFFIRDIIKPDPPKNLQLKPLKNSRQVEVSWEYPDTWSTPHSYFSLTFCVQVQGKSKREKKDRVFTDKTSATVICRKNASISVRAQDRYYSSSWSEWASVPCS
Put plainly: cell-based or functional assay.

For assay [2], the target named is T2, human IL-12 protein (human, UniProt P29459 23-219; P29460 23-328).
T2 construct: Recombinant protein; also called hIL12; hIL-12
T2 sequence (looked up) 1: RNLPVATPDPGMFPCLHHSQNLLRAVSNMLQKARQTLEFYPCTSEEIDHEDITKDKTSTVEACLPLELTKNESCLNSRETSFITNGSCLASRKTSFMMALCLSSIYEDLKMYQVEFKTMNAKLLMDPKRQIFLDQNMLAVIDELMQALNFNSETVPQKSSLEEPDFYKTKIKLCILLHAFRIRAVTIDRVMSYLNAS
T2 sequence (looked up) 2: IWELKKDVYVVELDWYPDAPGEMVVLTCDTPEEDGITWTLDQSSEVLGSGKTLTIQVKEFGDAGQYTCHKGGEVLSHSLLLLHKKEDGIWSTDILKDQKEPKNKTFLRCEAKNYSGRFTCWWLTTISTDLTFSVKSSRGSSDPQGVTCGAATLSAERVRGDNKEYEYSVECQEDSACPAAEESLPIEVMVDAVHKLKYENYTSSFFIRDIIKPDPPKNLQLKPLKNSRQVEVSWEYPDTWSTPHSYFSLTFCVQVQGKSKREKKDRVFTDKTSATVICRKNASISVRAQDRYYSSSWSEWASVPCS
The assay can be described thus: SPR (BIAcore); antibody captured on anti-Fc chip, antigen injected. The method, then:
(§1) Binding of anti-IL-23p19-specific antibodies to IL-23 proteins was analyzed by Surface plasmon resonance (SPR) determined by BIAcore. Briefly, serial dilutions of the anti-IL-23p19 antibodies or the control antibodies were captured on an anti-mouse or human Fc chip (s) that were immobilized on the CM5 chip using amine coupling kit (GE Healthcare, Catalog NO: BR-1000-50, LOT NO: 2087295).
(§2) Next, serial dilutions of IL-23 recombinant protein, human p19/mouse p40 heterodimer protein, human IL-12 protein and human p40 subunit protein in the running buffer containing 10 mM HEPES, 150 mM NaCl, 3 mM EDTA, 0.005% Tween 20, pH 7.4, were injected at 50 μl/minute over immobilized antibody for 1 minute followed by 2 minutes dissociation. Each injection was followed by a regeneration step with a 60-second pulse of 10 mM Glycine-HCl, pH 1.7 buffer. Fitting of experimental data was done with BIAevaluation software (GE Healthcare), fit with a Langmuir 1:1 model to determine apparent binding.
(In general: Surface plasmon resonance follows binding to a sensor surface in real time, without labels.)

The target of assay [3] is T3, human p40 subunit protein (human, UniProt P29460 23-328).
T3 construct: p40 subunit alone; also called hp40
T3 sequence (looked up): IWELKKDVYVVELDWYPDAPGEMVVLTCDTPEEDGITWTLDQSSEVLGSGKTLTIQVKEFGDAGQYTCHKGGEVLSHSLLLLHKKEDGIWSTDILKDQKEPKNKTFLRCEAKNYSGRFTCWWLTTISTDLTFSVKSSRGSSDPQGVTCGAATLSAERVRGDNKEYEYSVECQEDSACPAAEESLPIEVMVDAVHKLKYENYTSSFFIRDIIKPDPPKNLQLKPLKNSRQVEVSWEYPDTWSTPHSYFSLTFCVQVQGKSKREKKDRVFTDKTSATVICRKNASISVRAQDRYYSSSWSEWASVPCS
Described as above. The method, then:
as §1, §2

The target in assay [4] is T1, recombinant human IL-23 (p19/p40 …). The assay can be described thus: SPR (BIAcore 3000); antibody captured on anti-mouse IgG CM5 chip, hIL-23 0.156-40 nM, 1:1 global fit. The procedure:
To ensure accurate measurements of the KD and IC50 endpoints in binding and functional assays, the antibodies were purified from the hybridoma culture supernatants prior to testing. The binding kinetics of the disclosed anti-IL-23p19-specific antibodies to recombinant human IL-23 was determined by Surface plasmon resonance (SPR) using BIAcore 3000 system docked with a CM5 chip previously immobilized via amine coupling chemistry with anti-mouse IgG antibody (GE Cat No. BR-1008-38). Flow cell 1 remained unmodified to serve as a reference cell for subtraction of systematic instrument noise and drift. Fc2-1 detection was run with double blanking (Fc1 and blank analyte buffer). Antibody samples were diluted to 50 μg/mL in HBS-EP (GE, catalog no: BR1001-88) and injected at a flow rate of 10 uL/minute for 1 minute. Next, hIL-23 (R&D systems, catalog no: 1290-IL/CF) diluted to 0.156-40 nM was injected at 50 μL/minute for 2 minutes, followed by 10 minutes dissociation. Data were analyzed in BIAEvalution software (GE Healthcare) by 1:1 binding model with global fit to determine apparent binding kinetics.

For assay [5], the target named is T2, human IL-12 protein. Put plainly: ELISA; antigen coated directly on plate. The procedure:
(§3) The binding specificity of the disclosed anti-IL-23p19 antibodies were also assessed by ELISA. Briefly, biotinylated IL-23 were captured via streptavidin coated ELISA plates. Human p19/mouse p40, human IL-12 and human p40 subunit were directly coated to ELISA plates. Purified antibodies were then added to the plates followed by detection by goat-anti-mouse IgG-HRP (Jackson ImmunoResearch, catalog no: 115-036-071, LOT NO: 147271). After addition of ABTS substrate (Moss Inc., catalog no: ABTS-1000, LOT NO: 03086202), ELISA plates were read using an ELISA plate reader (Biotek). The controls depicted in FIG. 3: PC1 refers to a reference antibody (known to be a p19 specific antibody, Biointron, LOT NO:20180926A04); PC2 refers to a reference antibody (known to be a p40 specific antibody, Biointron, LOT NO: 20180925A07); PC3 refers to a reference antibody (MT155, known as a p19 specific antibody from Mabtech, catalog no: 3457-6-100, code: 3457-6-1000), the negative controls are human IgG4 (Dendritics, catalog no: DDXCHO4P-100, LOT NO: DDXCH04-028) and the mouse IgG2a (generated by Novarock Biotherapeutics).
(ELISA stands for enzyme-linked immunosorbent assay.)

Assay [6] has as its target T3, human p40 subunit protein. Put plainly: ELISA; antigen coated directly on plate. The procedure:
as §3

Assay [7] concerns the target T1, recombinant human IL-23 (p19/p40 …). Put plainly: SPR (BIAcore 3000); captured antibody, hIL-23 0.156-40 nM, 1:1 global fit.

B1: Hu-5 18006B (antibody, IgG2b, V domains shown)
VH: QLQLQESGPGLVKPSETLSLTCTVSGGSISSSSFYWGWIRQPPGKGLEWIGSIYYSGSTYYNPSLKSRVTISVDTSKNQFSLKLSSVTAADTAVYFCARHGVRGVIPHFDYWGQGTLVTVSS
VL: QTVLTQEPSFSVSPGGTVTLTCGLNSGSVSTIYYPSWYQQTPGQAPRALIYSTNTRSSGVPDRFSGSILGNKAALTITGAQADDESDYYCVLFLGSGLVFGGGTKLTVL
notes: Purified from hybridoma
What is called Kd is the constant that tells how readily two partners part at equilibrium. As usually defined, the koff is a measure of how fast the partners let go of each other. As usually defined, the kon is the rate constant with which the complex forms. Turning to B1, in assay [1], the “IC50 pM, STAT3 activation in DB reporter cells” value (shortened to “IC50 pM, STAT3 activation”) was determined as 226 pM and the “Top % of inhibition, STAT3 activation in DB reporter cells” value (“Top % of inhibition, STAT3 activation” for short) amounted to 99%. Also, in assay [2], the binding result is reported as “no binding”. Further, the binding result in assay [3] is “no binding”. Further, in assay [4], the Kd stood at 0.0662 nM, the koff turned out to be 9.89e-05 s⁻¹ and the kon turned out to be 1.49e+06 M⁻¹ s⁻¹.

B2: Hu-6 18006B (purified from hybridoma) (antibody, V domains shown)
VH: QVQLVQSGAEVKKPGASVKVSCKTSGYTFTYYGISWVRQAPGQGLEWMGLISAYNGNTNYGQKVQGRVTMTTDTSTSTAYMELRSLRSDDTAVYYCVTENINWRDAFDIWGQGTMVTVSS
VL: EIVLTQSPDFQSVTPKEKVTITCRASQTIGSSLHWYQQKPDQSPKLLIKYASQSISGVPSRFSGSGSGTDFTLTINSLEAEDAAAYYCHQSSSLPYTFGQGTKLEIK
Consider B2, for which, in assay [1], the “IC50 pM, STAT3 activation” value turned out to be 60.5 pM and the “Top % of inhibition, STAT3 activation” value amounted to 99%.

B3: Hu-4 18006B* (recombinant, mIgG2a) (antibody, V domains shown)
VH: QVHLVQSGAEVKKPGASVKVSCKASGYTFSSYGINWVRQAPGQGLEWMGWISAYSGNTDYSQHLQGRVTMTTDTSTNTAYMELRSLRSDDTAVYYCARASANWYDYFDPWGQGTLVTVSS
VL: EIVLTQSPDFQSVTPKEKVTITCRASQTIGGSLHWYQQKPDQSPKLLITYASQSFSGVPSRFSGSGSGTDFTLTIHSLEAEDAATYYCHQSSILPYTFGQGTKLEIK
Consider B3, for which, in assay [1], the “IC50 pM, STAT3 activation” value stood at 265 pM and the “Top % of inhibition, STAT3 activation” value turned out to be 100%. The binding result in assay [2] was “no binding”. Besides, the binding result in assay [3] is “no binding”.

B4: Hu-4 18006B (purified from hybridoma) (antibody, IgG2c, V domains shown)
VH: QVHLVQSGAEVKKPGASVKVSCKASGYTFSSYGINWVRQAPGQGLEWMGWISAYSGNTDYSQHLQGRVTMTTDTSTNTAYMELRSLRSDDTAVYYCARASANWYDYFDPWGQGTLVTVSS
VL: EIVLTQSPDFQSVTPKEKVTITCRASQTIGGSLHWYQQKPDQSPKLLITYASQSFSGVPSRFSGSGSGTDFTLTIHSLEAEDAATYYCHQSSILPYTFGQGTKLEIK
Turning to B4, in assay [1], the “IC50 pM, STAT3 activation” value turned out to be 168 pM and the “Top % of inhibition, STAT3 activation” value came out at 99%. In addition, the binding result in assay [5] was “no binding”. Moreover, the binding result in assay [6] is “no binding”.

B5: Hu-6 18006B* (recombinant mIgG2a) (antibody, V domains shown)
VH: QVQLVQSGAEVKKPGASVKVSCKTSGYTFTYYGISWVRQAPGQGLEWMGLISAYNGNTNYGQKVQGRVTMTTDTSTSTAYMELRSLRSDDTAVYYCVTENINWRDAFDIWGQGTMVTVSS
VL: EIVLTQSPDFQSVTPKEKVTITCRASQTIGSSLHWYQQKPDQSPKLLIKYASQSISGVPSRFSGSGSGTDFTLTINSLEAEDAAAYYCHQSSSLPYTFGQGTKLEIK
As to B5, in assay [1], the “IC50 pM, STAT3 activation” value was 35.2 pM and the “Top % of inhibition, STAT3 activation” value was 99%. The binding result in assay [2] was “no binding”. In addition, the binding result in assay [3] is given as “no binding”. In addition, in assay [4], the Kd is 0.0384 nM, the koff was 0.000171 s⁻¹ and the kon was found to be 4.44e+06 M⁻¹ s⁻¹.

B6: Hu-4 18006B** (recombinant, hIgG4) (antibody, V domains shown)
VH: QVHLVQSGAEVKKPGASVKVSCKASGYTFSSYGINWVRQAPGQGLEWMGWISAYSGNTDYSQHLQGRVTMTTDTSTNTAYMELRSLRSDDTAVYYCARASANWYDYFDPWGQGTLVTVSS
VL: EIVLTQSPDFQSVTPKEKVTITCRASQTIGGSLHWYQQKPDQSPKLLITYASQSFSGVPSRFSGSGSGTDFTLTIHSLEAEDAATYYCHQSSILPYTFGQGTKLEIK
Turning to B6, in assay [1], the “IC50 pM, STAT3 activation” value was found to be 157 pM and the “Top % of inhibition, STAT3 activation” value was determined as 100%. For the same molecule, the binding result in assay [2] is listed as “no binding”. In assay [3], the binding result was “no binding”. In assay [7], the Kd came to 0.0572 nM, the koff came out at 0.000143 s⁻¹ and the kon was found to be 2.5e+06 M⁻¹ s⁻¹.

B7: Hu-2 18006B (antibody, V domains shown)
VH: QVQLVQSGAEVKKPGASVKVSCKASGYTFTTYGISWVRQAPGQGLEWMGWISAYNGNTKYAQKLQGRVTMTTDTSTSTAYMELRSLRSDDTAVYYCAREWRAFYYYGLDVWGQGTTVTVSS
VL: DIVMTQTPLSSPVTLGQPASISCRSSQSLEHSDGNTYLSWLQQRPNQPPRLLIYKVSNRFSGVPDRFSGSGAGTDFTLKISRVEAEDVGVYYCTQATQFPLTFGGGTKVEIK
notes: Purified from hybridoma (Trianni mice); also called H-2 1800B (mIgG1)
For the molecule B7, in assay [1], the “IC50 pM, STAT3 activation” value was found to be 158 pM and the “Top % of inhibition, STAT3 activation” value amounted to 97%. Besides, the binding result in assay [2] was “no binding”. Further, the binding result in assay [3] is recorded as “no binding”. In assay [4], the Kd is 0.0416 nM, the koff was 6.54e-05 s⁻¹ and the kon turned out to be 1.57e+06 M⁻¹ s⁻¹.
